Substitutions are numbered along the chain they refer to. In names and notes the source's numbering stands.

For experiment [1], the target named is T1, Recombinant Human Cadherin-6 (KCAD)/Fc Chimera (RD-SYSTEMS) (human, UniProt P55285 54-615, limits assumed).
T1 construct: Captured by an anti-histidine antibody; also called human CDH6; the antigen; not shown: Fc portion (and the histidine tag implied by anti-histidine capture) of the bought chimera
T1 sequence: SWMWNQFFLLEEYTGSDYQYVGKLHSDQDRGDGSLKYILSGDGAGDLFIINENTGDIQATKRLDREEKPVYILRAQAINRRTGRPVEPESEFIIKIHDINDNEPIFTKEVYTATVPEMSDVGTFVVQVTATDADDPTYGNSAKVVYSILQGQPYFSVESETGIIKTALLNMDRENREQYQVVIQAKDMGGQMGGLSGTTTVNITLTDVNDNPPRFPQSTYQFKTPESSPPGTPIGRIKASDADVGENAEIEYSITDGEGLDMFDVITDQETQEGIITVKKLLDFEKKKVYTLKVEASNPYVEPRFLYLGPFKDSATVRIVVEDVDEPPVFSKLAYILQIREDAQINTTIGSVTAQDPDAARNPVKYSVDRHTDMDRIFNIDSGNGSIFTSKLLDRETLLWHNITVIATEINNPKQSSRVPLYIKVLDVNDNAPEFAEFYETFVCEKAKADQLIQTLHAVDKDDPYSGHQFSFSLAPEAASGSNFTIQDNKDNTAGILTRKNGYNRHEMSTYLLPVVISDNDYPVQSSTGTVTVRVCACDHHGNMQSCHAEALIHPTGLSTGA
Briefly: SPR (Biacore T200), antigen captured by immobilized anti-histidine antibody, antibody as analyte, steady state affinity model. Here is the method: The dissociation constant of a construct of each of H01L02A, H11L02A and H31L02A prepared in Example 7)-4 and human CDH6 was measured by using Biacore T200 (GE Healthcare Biosciences Corp.), according to a capture method, which comprises capturing the antigen as a ligand with Anti-histidine antibody immobilized by means of a His Capture Kit (manufactured by GE Healthcare Bioscience) and then measuring the dissociation constant using an antibody as an analyte. As the sensor chip, CM5 (manufactured by GE Healthcare Bioscience) was used. As the running buffer, buffer containing 20 mM Tris-HCl, 150 mM NaCl, 1 mM CaCl₂ and 0.05% Surfactant P20 (pH7.4), was used. On the chip, a 1 μg/mL Recombinant Human Cadherin-6 (KCAD)/Fc Chimera (RD-SYSTEMS) was added at a rate of 10 μL/minute for 60 seconds, and a dilution series solution (0.11 to 81 μg/mL) of the antibody prepared in Example 7)-4 was then added at a flow rate of 30 μl/min for 180 seconds. Subsequently, the dissociation phase was monitored for 180 seconds. As a regeneration solution, a Glycine 1.5 (GE Healthcare Bioscience made by the company) was added at a flow rate of 20 μl/min for 30 seconds. A Steady State Affinity model was used in data analysis, and the dissociation constant (KD) was calculated.

In experiment [2] the target is T2, human CDH6 (full-length, on cells) (human, UniProt P55285 54-790).
T2 construct: also called hCDH6; full-length hCDH6
T2 sequence: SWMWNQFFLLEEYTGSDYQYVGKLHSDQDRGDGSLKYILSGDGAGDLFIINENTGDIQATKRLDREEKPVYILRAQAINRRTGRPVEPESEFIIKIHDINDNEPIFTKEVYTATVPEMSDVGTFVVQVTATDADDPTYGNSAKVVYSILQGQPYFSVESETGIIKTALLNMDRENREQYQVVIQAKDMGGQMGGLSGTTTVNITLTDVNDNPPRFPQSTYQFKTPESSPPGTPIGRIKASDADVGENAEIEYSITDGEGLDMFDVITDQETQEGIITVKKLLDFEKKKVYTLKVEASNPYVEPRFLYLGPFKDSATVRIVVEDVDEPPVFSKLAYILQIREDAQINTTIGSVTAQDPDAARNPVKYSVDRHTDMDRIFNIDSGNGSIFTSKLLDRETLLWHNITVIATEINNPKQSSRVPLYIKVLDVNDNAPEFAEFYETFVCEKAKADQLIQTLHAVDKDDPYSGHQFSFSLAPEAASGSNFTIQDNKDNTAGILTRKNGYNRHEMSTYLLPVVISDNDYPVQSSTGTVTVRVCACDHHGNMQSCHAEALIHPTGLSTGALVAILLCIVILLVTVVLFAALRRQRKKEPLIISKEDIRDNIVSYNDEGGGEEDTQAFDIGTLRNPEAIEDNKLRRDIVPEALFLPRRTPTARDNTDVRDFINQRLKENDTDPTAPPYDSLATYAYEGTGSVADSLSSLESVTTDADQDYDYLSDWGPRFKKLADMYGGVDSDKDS
Briefly: flow cytometry, 293α cells transiently transfected with pcDNA3.1-hCDH6, PE anti-human IgG Fcγ F(ab')2, mean fluorescence intensity. Here is the method:
(§1) The CDH6-binding activity of the human chimeric anti-CDH6 antibody chG019 purified in 4)-2 was confirmed by flow cytometry. […] The cells were cultured overnight under conditions of 37° C. and 5% CO₂, treated with TrypLE Express (Thermo Fisher Scientific Inc.), and thereafter, a cell suspension was prepared. chG019 was added to the suspension of each of these cells. The cells were left standing at 4° C. for 1 hour. Thereafter, the cells were washed twice with PBS supplemented with 5% FBS, and then suspended by the addition of PE-labeled F(ab′)2 Fragment anti-human IgG, Fcγ antibody (Jackson ImmunoResearch Laboratories, Inc.) that had been 500-fold diluted with PBS supplemented with 5% FBS. The cells were left standing at 4° C. for 1 hour. The cells were washed twice with PBS supplemented with 5% FBS, and then re-suspended in PBS supplemented with 5% FBS, followed by detection using a flow cytometer (Canto II; BD Biosciences). The data was analyzed using FlowJo (TreeStar, Inc.). […] In FIG. 4, the abscissa depicts antibody concentration, and the ordinate depicts the amount of the antibody bound, based on mean fluorescence intensity.
For orientation: In flow cytometry, cells or beads pass a laser one at a time.

Experiment [3] deals with T3, cynomolgus monkey CDH6 (full-length, on cells) (cynomolgus monkey, UniProt P55285 54-790 (human entry)).
T3 construct: Expressed from pcDNA3.1-cynoCDH6 on transfected cells; also called cynoCDH6
T3 sequence: T2 sequence with Y300H, H457R, A707G
Description: flow cytometry, 293α cells transiently transfected with pcDNA3.1-cynoCDH6, PE anti-human IgG Fcγ F(ab')2, mean fluorescence intensity. Here is the method:
as §1

B1: humanized anti-CDH6 antibody H01L02A (antibody, human IgG1, kappa, L234A L235A)
heavy: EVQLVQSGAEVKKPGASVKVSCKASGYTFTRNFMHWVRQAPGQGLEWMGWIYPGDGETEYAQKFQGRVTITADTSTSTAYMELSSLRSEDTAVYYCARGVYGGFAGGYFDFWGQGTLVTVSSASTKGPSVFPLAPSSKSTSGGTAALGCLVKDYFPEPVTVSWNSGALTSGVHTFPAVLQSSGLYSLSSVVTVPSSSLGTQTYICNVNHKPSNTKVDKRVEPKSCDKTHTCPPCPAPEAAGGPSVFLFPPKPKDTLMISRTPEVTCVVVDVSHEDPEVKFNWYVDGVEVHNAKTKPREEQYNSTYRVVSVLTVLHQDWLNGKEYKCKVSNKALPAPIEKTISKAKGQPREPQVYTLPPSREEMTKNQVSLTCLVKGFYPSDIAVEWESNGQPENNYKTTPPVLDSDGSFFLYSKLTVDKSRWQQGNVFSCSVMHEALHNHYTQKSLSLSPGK
light: DIQMTQSPSSLSASVGDRVTITCKASQNIYKNLAWYQQKPGKAPKLLIYDANTLQTGVPSRFSGSGSGSDFTLTISSLQPEDFATYFCQQYYSGWAFGQGTKVEIKRTVAAPSVFIFPPSDEQLKSGTASVVCLLNNFYPREAKVQWKVDNALQSGNSQESVTEQDSKDSTYSLSSTLTLSKADYEKHKVYACEVTHQGLSSPVTKSFNRGEC
notes: hH01A heavy chain (hH01 with L234A/L235A, EU index; IgG1 LALA) and hL02 light chain; also called H01L02A antibody
For orientation: Kd means a measure of binding affinity in units of concentration. B1: in experiment [1], the Kd amounted to 2.8 nM.

B2: humanized anti-CDH6 antibody H11L02A (antibody, human IgG1, kappa, L234A L235A, V domains shown)
VH: EVQLVQSGAEVKKPGASVKVSCKASGYTFTRNFMHWVRQAPGQGLEWMGWIAPGDGETEYAQKFQGRVTITADTSTSTAYMELSSLRSEDTAVYYCARGVYGGFAGGYFDFWGQGTLVTVSS
VL: DIQMTQSPSSLSASVGDRVTITCKASQNIYKNLAWYQQKPGKAPKLLIYDANTLQTGVPSRFSGSGSGSDFTLTISSLQPEDFATYFCQQYYSGWAFGQGTKVEIKR
notes: hH11A heavy chain (hH01 with the 71st tyrosine changed to alanine, IgG1 LALA) and hL02 light chain; also called H11L02A antibody
Turning to B2, the Kd in experiment [1] came out at 43.1 nM.

B3: humanized anti-CDH6 antibody H31L02A (antibody, human IgG1, kappa, L234A L235A, V domains shown)
VH: B2 VH with A52Y, Q62S, F104A
VL: B2 VL
notes: hH31A heavy chain (hH01 with the 81st glutamine changed to serine and the 123rd phenylalanine to alanine, IgG1 LALA) and hL02 light chain; also called H31L02A antibody
On to B3, for which the Kd in experiment [1] stood at 11.1 nM.

B4: human chimeric anti-CDH6 antibody chG019 (antibody, human IgG1)
heavy: not shown
light: DIQMTQSPSLLSASVGDRVTLNCKASQNIYKNLAWYQQKLGEGPKLLIYDANTLQTGIPSRFSGSGSGSDFTLTISSLQPEDVATYFCQQYYSGWAFGGVTNLELKRAVAAPSVFIFPPSDEQLKSGTASVVCLLNNFYPREAKVQWKVDNALQSGNSQESVTEQDSKDSTYSLSSTLTLSKADYEKHKVYACEVTHQGLSSPVTKSFNRGEC
notes: Human IgG1/kappa constant regions; also called chimeric G019 antibody; chG019 antibody
As a reminder, the EC50 (read off the curve) is the concentration needed to bring the measured effect to its halfway point. For B4, the “EC50 (read off the curve)” value in experiment [2] and in experiment [3] was about 0.01 µg/mL throughout.

For the origin of these results see patent US20220016257A1 (Daiichi Sankyo, published 2022).
